Experimental findings from the supplement of paper PMC12042874 are described below.

± gives the uncertainty stated by the source.

A short description of the series: amyloid nucleation score (Sup35N fusion, yeast selection) (log enrichment); library NNK2; higher = more nucleation; inactive = no reads after selection. Put shortly:
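For the nucleation score, DiMSum gave the log enrichment of output over input reads, centred on the mode score of non-aggregating sequences. Psi-negative yeast expressing Sup35N fused to peptides of 20 random codons were induced with 100 μM copper sulfate for 24 hours and grown 7 days at 30°C on medium lacking adenine and uracil. Input and output plasmid inserts were Illumina-sequenced, and sequences with under 100 input reads were excluded.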

With GIFWTVNIGEICGAIEWSEG, the amyloid nucleation score was 0.276 ± 0.29.

WDSDRSYVLSLFADVPLAKC showed an amyloid nucleation score of 0.035 ± 1.

For the substance HMAVNTTALAKNLITG, the amyloid nucleation score is -0.401 ± 0.55.

LEVLVLDVYSYVSLHVGTFV came in with an amyloid nucleation score of 0.051 ± 0.35.

Consider NPRGWAVEMVDYHSTFLKPE, for which the amyloid nucleation score came to 5.64 ± 0.075.

For VVDSTVGRADGTCGGVVGFA, the amyloid nucleation score was found to be 0.87 ± 0.41.

As to NENTLNMMKVWVTGGLSTRK, the amyloid nucleation score amounted to 2.89 ± 0.17.

FVLWIRYALRVTDYTVYMGA yielded an amyloid nucleation score of 0.436 ± 0.39.

Consider WSFLYE, for which the amyloid nucleation score is -0.548 ± 0.33.

In the case of VHSGLYAKCVRLYMQNFPHL, the amyloid nucleation score turned out to be 0.192 ± 0.79.

Take NCETLCVLVGAQYC: the amyloid nucleation score turned out to be 4.13 ± 0.049.

RCTKA yielded an amyloid nucleation score of 0.341 ± 0.21.

As to EDIIIVQFVV, the amyloid nucleation score came out at 0.424 ± 0.24.

SRANMQSRCRLNNQSVYGKL gave an amyloid nucleation score of -0.175 ± 0.45.

With LTRPCITV, the amyloid nucleation score amounted to 0.193 ± 0.55.

VLVGVEWFV had an amyloid nucleation score of 0.318 ± 0.38.

LVVSI displayed an amyloid nucleation score of -0.876 ± 0.78.

As to RFSQRNPITVHGQSDTV, the amyloid nucleation score entry is “inactive”.

RTWSIFIASVKYVKV registered an amyloid nucleation score of -0.24 ± 0.74.

As for VSIFMQRR, the amyloid nucleation score came out at 2.76 ± 0.13.

Consider SGIGVNSGAGRNMDLCDLKR, for which the amyloid nucleation score result is “inactive”.

As for EDVYKRTQRDWDCLILYQRY, the amyloid nucleation score is -0.765 ± 0.76.

In the case of LTSMEARLQMKVRDGFQNGE, the amyloid nucleation score is 0.437 ± 0.49.

With YMLWGWFFLNGFYTVIGIVP, the amyloid nucleation score entry was “inactive”.

For CDFLLLKLFRNVLVWLVCSG, the amyloid nucleation score entry is “inactive”.

As for YNLFYELNLVLIP, the amyloid nucleation score came to 6.137 ± 0.05.

GSDAVR showed an amyloid nucleation score of 2.7 ± 0.082.

As to SSCYSVLGMRL, the amyloid nucleation score entry was “inactive”.

Substance NTLYSFVRGCKPRMEFNRVK gave an amyloid nucleation score of -0.965 ± 1.

As for SVSNVPRGWSLTRGLSTVPG, the amyloid nucleation score turned out to be 0.828 ± 0.22.

As for DRGECYDLIGLCHSPVCCYP, the amyloid nucleation score is -0.038 ± 0.42.

IGVQVFPRMHVG: the amyloid nucleation score came to 3.06 ± 0.15.

As to ARCCFVPEEYSVV, the amyloid nucleation score was found to be 1.22 ± 0.25.

In turn, RCLLKLDQV came in with an amyloid nucleation score of -0.509 ± 0.4.

As to WRKRYEYTVRVGRSAKSTLM, the amyloid nucleation score was found to be 0.455 ± 0.37.

Turning to VEYINWRFIRNTYSVE, the amyloid nucleation score turned out to be 2.14 ± 0.12.

For MVFFLLQLATAAVFSF, the amyloid nucleation score is -0.073 ± 1.

The substance QIELGALNNRCGNRDGSGDW had an amyloid nucleation score of -0.842 ± 0.35.

In turn, CALFLFRKVLVLIT registered an amyloid nucleation score of -1.48 ± 0.55.

For the substance RVGTLKTISFHSNLNSNKIR, the amyloid nucleation score was -0.614 ± 0.33.

Consider TGVFHSVCNIWCFHSKDPSN, for which the amyloid nucleation score turned out to be 7.54 ± 0.076.

SYHNVG yielded an amyloid nucleation score of -0.974 ± 0.61.

In turn, CPIDYGTSVNHDNKVSILYL gave an amyloid nucleation score of 0.534 ± 0.51.

With IYPLWLMKSGIRLLCGKMCL, the amyloid nucleation score was found to be 0.607 ± 0.34.

For the substance LSLYFFDL, the amyloid nucleation score is 1.06 ± 0.36.

TIHRVVWCLL yielded an amyloid nucleation score of -0.645 ± 0.56.

As to FLFFGVGMMCEARDAPMVAF, the amyloid nucleation score is 0.073 ± 1.1.

For FNYSPLRFCTNDC, the amyloid nucleation score was 1.63 ± 0.31.

For SVGIVSSDRCLCLMSM, the amyloid nucleation score worked out at 1.3 ± 0.39.

Take TSIILGFFLMTTLQN: the amyloid nucleation score entry was “inactive”.

With FMFLEKRVGNVGRYFHEYIG, the amyloid nucleation score result is “inactive”.

As to IDDARRYCRQNRFTVSMGNC, the amyloid nucleation score was -0.112 ± 0.54.

In the case of GNMVFAPCDL, the amyloid nucleation score stood at 1.07 ± 0.2.

Consider EIIFVMPVFYIFKTLCLLSA, for which the amyloid nucleation score stood at 0.332 ± 0.16.

Consider DFMRELYFMGSRPFEMLYMY, for which the amyloid nucleation score came to 0.102 ± 0.77.

In turn, LVNACFCACLRNNSFKCDYY displayed an amyloid nucleation score of 6.966 ± 0.066.

Substance VLVSLFLPLENYFG registered an amyloid nucleation score of -0.549 ± 1.

As for CTCQVFPHNALCQGSWVLPV, the amyloid nucleation score worked out at 1.07 ± 0.27.

On to VFDSPLHQWFYIKLIMLSTL, for which the amyloid nucleation score result was “inactive”.

In turn, IVQLVIAVTGMFLYWNYAFL gave an amyloid nucleation score of -0.461 ± 0.43.

As for IQGFGLKLVEIYWEARQLVH, the amyloid nucleation score entry was “inactive”.

For the substance MHRLRYKATVFGLNNDDMPP, the amyloid nucleation score was determined as 0.841 ± 0.44.

As to GMTEWVGLAQERIYAWAKSE, the amyloid nucleation score was found to be 0.517 ± 0.36.

On to DQGVMLFRG, for which the amyloid nucleation score is -0.134 ± 0.32.

In the case of RSYLVFYTRYLTFNGPSTKF, the amyloid nucleation score is 7.79 ± 0.08.

In turn, GYSGVLILWEVVICWYGVTG returned an amyloid nucleation score of -0.313 ± 0.61.

As for VSNRLRLSFKRVPHHAGYRP, the amyloid nucleation score came out at 2.76 ± 0.2.

For the substance CLWVRGSCC, the amyloid nucleation score was -1.04 ± 0.55.

Consider KRKKQKFAMLYVSGNLLRRD, for which the amyloid nucleation score stood at 0.234 ± 0.28.

Regarding FNGSGARGSGRMYAILYKMS, the amyloid nucleation score was 0.422 ± 0.56.

For the substance LNSPLIPVRLMGVVRFQLLD, the amyloid nucleation score was -0.459 ± 0.39.

The substance ADMIMRYKG yielded an amyloid nucleation score of 0.879 ± 0.57.

The substance DKFISLFKRGAHKDVQ registered an amyloid nucleation score of -0.42 ± 0.76.

For the substance AIVYDH, the amyloid nucleation score is -0.291 ± 0.63.

As to DIVNLSEDGLSSNELFIARM, the amyloid nucleation score is -0.52 ± 1.1.

In turn, RMLGALFGMHVNYRAVSELF came in with an amyloid nucleation score of 1.49 ± 0.12.

For the substance LPHLCCIIY, the amyloid nucleation score stood at 2.56 ± 0.066.

In the case of TTIFYKPLQCLLGLFFYP, the amyloid nucleation score was -0.623 ± 1.

RYSNKSDDYRGTSYLMYHVM: the amyloid nucleation score amounted to 0.232 ± 0.45.

Consider ACLITNRV, for which the amyloid nucleation score is -0.288 ± 0.54.

Substance VMYYEGG came in with an amyloid nucleation score of -0.561 ± 0.63.

VLHRLRSLLERFLFYVDLIS yielded an amyloid nucleation score of 0.355 ± 0.65.

For GDAWGTSNIDQSWKLYLSGT, the amyloid nucleation score is -0.12 ± 0.3.

For the substance YKAAIGFCINQCLRHHVTKR, the amyloid nucleation score result is “inactive”.

MDWSSGSYGSLSSSHAIERF came in with an amyloid nucleation score of -0.093 ± 0.79.

Take NYFCIRS: the amyloid nucleation score turned out to be 4.11 ± 0.052.

Consider FNYWPYVLNWWELLYQDDAT, for which the amyloid nucleation score came to 1.11 ± 0.23.

Turning to VLITKYSFTRLEFTIKVTSS, the amyloid nucleation score was 0.386 ± 0.57.

The substance IVCLYKKCLLCGLHLVVSIV yielded an amyloid nucleation score of -0.608 ± 0.53.

YIYYNYKGLSVVFLSNSNMW registered an amyloid nucleation score of 2.88 ± 0.12.

As to YSNANGRTRVWGPRERKKDQ, the amyloid nucleation score was -0.004 ± 0.65.

FWVPSLSTYLSFFGKFRDWA showed an amyloid nucleation score of -0.347 ± 0.5.

VVVFMHV showed an amyloid nucleation score of 1.51 ± 0.32.

For FVANSRLLALRLVIGTMLAG, the amyloid nucleation score is 0.214 ± 0.77.

On to IYFKIIQDKFQTRMCSNKSW, for which the amyloid nucleation score entry was “inactive”.

For LFGGRGKRVRLKVLLTQRF, the amyloid nucleation score was -0.37 ± 0.32.

NMIYYGVL gave an amyloid nucleation score of -1.24 ± 0.45.

On to YSVLFL, for which the amyloid nucleation score is -0.722 ± 0.54.

FLKSVSVRVGVILQAHAQEV showed an amyloid nucleation score of 0.375 ± 0.57.

Consider FGSIHGGRDEGPFLLGSSNV, for which the amyloid nucleation score was -0.675 ± 1.1.

Substance LRLWHDYSFFLNKVSQVHSY showed an amyloid nucleation score of -1.12 ± 1.1.

As to GDYWGAGWRRA, the amyloid nucleation score amounted to 0.184 ± 0.49.

With SEMDPNKAMRIGW, the amyloid nucleation score was 0.174 ± 0.21.

With MENLRNMAYSNC, the amyloid nucleation score is -1.66 ± 0.61.

The substance CWRFVSCNTNYNWTMQGFYY returned an amyloid nucleation score of -1.38 ± 1.1.

Substance NCFFITGGNGYNAVLLKYIC showed an amyloid nucleation score of 3.83 ± 0.04.

As for RWIATGSGRPETHVILESSG, the amyloid nucleation score result is “inactive”.

NNRSELVPKSANRMGFTSLA: the amyloid nucleation score is -0.278 ± 0.29.

For PYMPGRMWSRILSVCSVCCV, the amyloid nucleation score came to 1.48 ± 0.58.

In the case of FVSRSLNSQGQWFRSMTECR, the amyloid nucleation score is -0.517 ± 0.36.

Take YNVDTVYLRGSLLRSYDWCF: the amyloid nucleation score was -2.32 ± 1.1.

In turn, AFATRCCSTLIDPSFVIGTG displayed an amyloid nucleation score of 0.692 ± 0.41.

Substance KIRTNALYLL gave an amyloid nucleation score of -0.298 ± 0.29.

With QVRELVVLNSMGYPSSW, the amyloid nucleation score was -0.188 ± 0.41.

Substance LFESMPGCDDSNELIFWGIA yielded an amyloid nucleation score of -0.722 ± 0.28.

The substance LTLLFGRSVSEWVWNLMDRC returned an amyloid nucleation score of -0.461 ± 0.29.

For FTKKFYWGYPWCYMVF, the amyloid nucleation score was -0.229 ± 0.8.

GVIVCTWPRPRDCS came in with an amyloid nucleation score of 0.72 ± 0.58.

On to CGHVTMHRWGMKNIMLVYAV, for which the amyloid nucleation score was -0.889 ± 1.

The substance IMDLAKVCEGVLSSGRVALI gave an amyloid nucleation score of 0.096 ± 0.29.

For MFEVWFLESRHFINWGICSS, the amyloid nucleation score result was “inactive”.

The substance LTIDTTFVITSRYTCQLWQR came in with an amyloid nucleation score of 4.2 ± 0.056.

FYHISYGERKRGGLC: the amyloid nucleation score result was “inactive”.

Regarding FCGFMGTAPHMRPYVMPWLR, the amyloid nucleation score was determined as 0.816 ± 0.46.

LTTGKLYFSLEMYT displayed an amyloid nucleation score of -0.653 ± 0.63.

Consider KLYFCYLEI, for which the amyloid nucleation score is -1.25 ± 1.1.

Substance GVRHGHTRSVGYFSVSYTSL showed an amyloid nucleation score of -1.05 ± 0.54.

In turn, FVYESIFLHRMSYNPIRWWV had an amyloid nucleation score of 0.112 ± 1.1.

Regarding LPIRWVVVGEGSGVGRVWTW, the amyloid nucleation score is 0.227 ± 0.3.

As to SMRTG, the amyloid nucleation score amounted to 0.448 ± 0.23.

Regarding YGFKGTSLR, the amyloid nucleation score is -0.506 ± 0.28.

The substance LGDRCNS gave an amyloid nucleation score of 2.36 ± 0.11.

On to ENEWCCLWGRAKRVAGVQEV, for which the amyloid nucleation score is 0.495 ± 0.62.

The substance ALAYAWYLVGLLFSKVWRYS registered an amyloid nucleation score of 0.095 ± 0.42.

In turn, PGRRDSHVRAYQEGVVESVS came in with an amyloid nucleation score of 0.051 ± 0.49.

As for NFACVFHGVDFYRTDSSCRK, the amyloid nucleation score was determined as 5.17 ± 0.072.

Take LSFFMPDT: the amyloid nucleation score was -1.53 ± 0.36.

IYVPIGATQ had an amyloid nucleation score of -1.26 ± 0.78.

As to HCSWLYVLSYVSMSNICIGY, the amyloid nucleation score is -0.876 ± 0.76.

As for FLNHCDYCVVKSRLVDMKLN, the amyloid nucleation score was -0.296 ± 0.76.
